This note sets out measurements from publication PMC4072508, “Genome-Wide Prediction and Validation of Peptides That Bind Human Prosurvival Bcl-2 Proteins” (PLoS Computational Biology, 2014).

The target in the experiment is Bcl-xL, Q07817. The experiment in a line: peptide SPOT array, c-Myc-tagged receptor at 1 uM or 100 nM, anti-c-Myc-Cy3.
Sequence of Bcl-xL, Q07817 (Q07817 1-209): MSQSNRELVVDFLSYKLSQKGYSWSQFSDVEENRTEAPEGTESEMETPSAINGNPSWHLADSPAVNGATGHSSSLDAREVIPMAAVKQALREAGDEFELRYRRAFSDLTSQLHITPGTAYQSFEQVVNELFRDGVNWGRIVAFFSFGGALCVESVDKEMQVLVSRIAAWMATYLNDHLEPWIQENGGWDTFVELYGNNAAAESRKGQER

B1: FHOD3 (peptide)
chain: LSSISELSARLHLWAFKMDYETTEKE
The molecule B1 gave an SPOT signal as a fraction of Bim BH3's signal on the same receptor and array of 0.03.

B2: ACAP3 (peptide)
chain: LGRTGQVCLFLKRGLDQHALDQEQRD
On to B2, for which the SPOT signal as a fraction of Bim BH3's signal on the same receptor and array was 0.29.

B3: FIGN (peptide)
chain: DISALTASNLDKKYAEKYSGILEGPV
Turning to B3, the SPOT signal as a fraction of Bim BH3's signal on the same receptor and array is 0.02.

B4: NLRP1 (peptide)
chain: LKELDLSGNSDSHSAVKSLCKTLRRP
The molecule B4 had an SPOT signal as a fraction of Bim BH3's signal on the same receptor and array of 0.22.

B5: RP1L1 (peptide)
chain: HRNTRNLAAFLGKASDLLRFPVKQLY
As to B5, the SPOT signal as a fraction of Bim BH3's signal on the same receptor and array stood at 0.91.

B6: PAXIP1 (peptide)
chain: PVQVQQYIKKLYILGGEVAESAQKCT
As for B6, the SPOT signal as a fraction of Bim BH3's signal on the same receptor and array was 0.05.

B7: APOA4 (peptide)
chain: VPFATELHERLAKDSEKLKEEIGKEL
The molecule B7 gave an SPOT signal as a fraction of Bim BH3's signal on the same receptor and array of 0.02.

B8: ANKRD11 (peptide)
chain: NRGYYDVAKQLLAAGAEVNTKGLDDD
B8 returned an SPOT signal as a fraction of Bim BH3's signal on the same receptor and array of 0.03.

B9: IQGAP3 (peptide)
chain: YGKVKFTAEELSNMASELAKYGLQLP
Consider B9, for which the SPOT signal as a fraction of Bim BH3's signal on the same receptor and array was 0.05.

B10: GRIPAP1 (peptide)
chain: RTNNYQLSDEDRKNGVELTSLRQKVA
With B10, the SPOT signal as a fraction of Bim BH3's signal on the same receptor and array turned out to be 0.05.

B11: CACNA1G (peptide)
chain: VYILRKAARRLAQVLRAAGVRVGLLS
B11: the SPOT signal as a fraction of Bim BH3's signal on the same receptor and array amounted to 0.67.

B12: DNAH1 (peptide)
chain: EMNLQDHIESISKVAEVAGKEYAIEQ
B12 registered an SPOT signal as a fraction of Bim BH3's signal on the same receptor and array of 0.02.

B13: RANBP10 (peptide)
chain: TERIILFGRELQALSEQLGREYGKNL
For B13, the SPOT signal as a fraction of Bim BH3's signal on the same receptor and array is 0.03.

B14: TRPM7 (peptide)
chain: FERVEQMCIQDKEVGDRVNYIKRSLQ
For the molecule B14, the SPOT signal as a fraction of Bim BH3's signal on the same receptor and array came out at 0.03.

B15: TTC23 (peptide)
chain: LTKAERLSKELLQCGRIIKEEWIEIE
With B15, the SPOT signal as a fraction of Bim BH3's signal on the same receptor and array was 0.03.

B16: TUBB4Q (peptide)
chain: FTGNNTAVQEDKRVSEQFTATFRRKA
B16: the SPOT signal as a fraction of Bim BH3's signal on the same receptor and array was determined as 0.41.

B17: PION (peptide)
chain: DISLSNSGFKLVNFLCDYHQYRDKFS
The molecule B17 had an SPOT signal as a fraction of Bim BH3's signal on the same receptor and array of 0.17.

B18: TTN (peptide)
chain: VENTTDLASILIKDADRLNSGCYELK
B18 displayed an SPOT signal as a fraction of Bim BH3's signal on the same receptor and array of 0.02.

B19: C4orf22 (peptide)
chain: DFEARKAAIEIARLAERAQQKTLTSA
B19 gave an SPOT signal as a fraction of Bim BH3's signal on the same receptor and array of 0.04.

B20: FAHD1 (peptide)
chain: MDYVGGYALCLDMTARDVQDECKKKG
In turn, B20 showed an SPOT signal as a fraction of Bim BH3's signal on the same receptor and array of 0.03.

B21: BRPF3 (peptide)
chain: DTIFHRAAVRLRDLLGAILRHARRQA
Molecule B21 returned an SPOT signal as a fraction of Bim BH3's signal on the same receptor and array of 0.55.

B22: C3orf15 (peptide)
chain: RAEIEKMAEKINDIAYEMESRRTYLQ
B22: the SPOT signal as a fraction of Bim BH3's signal on the same receptor and array is 0.03.

B23: PLXNA4 (peptide)
chain: GHIYLGAVNRIYKLSSDLKVLVTHET
For B23, the SPOT signal as a fraction of Bim BH3's signal on the same receptor and array is 0.08.

B24: TRIM40 (peptide)
chain: VTQLRSLVIDLERTAKELDTNTLKNA
Turning to B24, the SPOT signal as a fraction of Bim BH3's signal on the same receptor and array stood at 0.03.

B25: TTC31 (peptide)
chain: DLSSTFVSLADRKVGDWPLSARREKG
Molecule B25 gave an SPOT signal as a fraction of Bim BH3's signal on the same receptor and array of 0.21.

B26: XXXX (peptide)
chain: VGNVDECGKKLVEVARRCRDEAIAAC
B26 showed an SPOT signal as a fraction of Bim BH3's signal on the same receptor and array of 0.02.

B27: RNF123 (peptide)
chain: FSEFIGMIQEIQQAAERLERNFVDSR
With B27, the SPOT signal as a fraction of Bim BH3's signal on the same receptor and array is 0.03.

B28: FOLH1 (peptide)
chain: PFDCRDYAVVLRKYLDKIYSISMKHP
Molecule B28 came in with an SPOT signal as a fraction of Bim BH3's signal on the same receptor and array of 0.44.

B29: ANGPTL4 (peptide)
chain: WDEMNVLAHGLLQLGQGLREHAERTR
In the case of B29, the SPOT signal as a fraction of Bim BH3's signal on the same receptor and array stood at 0.04.

B30: BLOC1S2 (peptide)
chain: VAALEQAAYKLDAYSKKLEAKYKKLE
Take B30: the SPOT signal as a fraction of Bim BH3's signal on the same receptor and array was found to be 0.25.

B31: EVI5 (peptide)
chain: PHQFDGVPDKLIQALYQVKYNSKKMK
B31 gave an SPOT signal as a fraction of Bim BH3's signal on the same receptor and array of 0.48.

B32: MURC (peptide)
chain: GERLRQSGERLRQSGERFKKSISNAA
Turning to B32, the SPOT signal as a fraction of Bim BH3's signal on the same receptor and array was found to be 0.44.

B33: IFFO2 (peptide)
chain: RMNLQTMVDTLQEAAQEADAIQEEMN
B33 had an SPOT signal as a fraction of Bim BH3's signal on the same receptor and array of 0.02.

B34: INADL (peptide)
chain: GFANHDVVEVDRNAGQVVHLTLVRRK
Take B34: the SPOT signal as a fraction of Bim BH3's signal on the same receptor and array was 0.08.

B35: CHMP1A (peptide)
chain: LFQLKFTAKQLEKLAKKAEKDSKAEQ
For the molecule B35, the SPOT signal as a fraction of Bim BH3's signal on the same receptor and array came out at 0.18.

B36: PPL (peptide)
chain: NKELSELIEQLQKNADQVEKNIVDTE
The molecule B36 showed an SPOT signal as a fraction of Bim BH3's signal on the same receptor and array of 0.03.

B37: METAP2 (peptide)
chain: GMTMIEICEKLEDCSRKLIKENGLNA
B37 yielded an SPOT signal as a fraction of Bim BH3's signal on the same receptor and array of 0.03.

B38: MAST1 (peptide)
chain: DGVLSFIHHQIIELARDCLTKSRDGL
Molecule B38 came in with an SPOT signal as a fraction of Bim BH3's signal on the same receptor and array of 0.03.

B39: SH3GL1 (peptide)
chain: LDYHRQAVQILDELAEKLKRRMREAS
For the molecule B39, the SPOT signal as a fraction of Bim BH3's signal on the same receptor and array was 0.05.

B40: RIMBP3 (peptide)
chain: RAELTGLARRDADRARKLQETNLRAV
In the case of B40, the SPOT signal as a fraction of Bim BH3's signal on the same receptor and array stood at 0.51.

B41: RIMBP3 (peptide)
chain: RAELTGLARRLADRARKLQETNLRAV
Molecule B41 yielded an SPOT signal as a fraction of Bim BH3's signal on the same receptor and array of 0.58.

B42: AZIN1 (peptide)
chain: FGTTLKNCRHLLECAKELDVQIIGVK
Molecule B42 registered an SPOT signal as a fraction of Bim BH3's signal on the same receptor and array of 0.03.

B43: SCARB2 (peptide)
chain: FVDINPLTGIILKAAKRFQINIYVKK
B43 returned an SPOT signal as a fraction of Bim BH3's signal on the same receptor and array of 0.16.

B44: NPLOC4 (peptide)
chain: ATKRETAATFLKKVLKEFGFQNNGFS
B44 showed an SPOT signal as a fraction of Bim BH3's signal on the same receptor and array of 0.48.

B45: ASB10 (peptide)
chain: GPGTLECAELLLRFGARVDGRSEEEE
B45 returned an SPOT signal as a fraction of Bim BH3's signal on the same receptor and array of 0.03.

B46: NBEAL2 (peptide)
chain: EVRSSQFARKLWRSLRRISQVSSGET
In turn, B46 came in with an SPOT signal as a fraction of Bim BH3's signal on the same receptor and array of 0.62.

B47: PANK2 (peptide)
chain: FLRINTIAMRLLAYALDYWSKGQLKA
Turning to B47, the SPOT signal as a fraction of Bim BH3's signal on the same receptor and array is 0.19.

B48: APOL6 (peptide)
chain: KEDLKGNIDKLRALADDIDKTHKKFT
On to B48, for which the SPOT signal as a fraction of Bim BH3's signal on the same receptor and array stood at 0.17.

B49: EVI5 (peptide)
chain: PHQFDGVPDKLIQAAYQVKYNSKKMK
Molecule B49 came in with an SPOT signal as a fraction of Bim BH3's signal on the same receptor and array of 0.69.

B50: FOLH1B (peptide)
chain: PFDCRDYAVVDRKYADKIYNISMKHP
In turn, B50 displayed an SPOT signal as a fraction of Bim BH3's signal on the same receptor and array of 0.36.

B51: RP1L1 (peptide)
chain: HRNTRNLAAFDGKASDLLRFPVKQLY
As for B51, the SPOT signal as a fraction of Bim BH3's signal on the same receptor and array was determined as 1.4.

B52: MYPN (peptide)
chain: KVFLNKAADFIEELSSLFKSHSSKRI
Consider B52, for which the SPOT signal as a fraction of Bim BH3's signal on the same receptor and array came to 0.13.
